Measurements published in patent US20030096403A1.

Target: surface antigen S of hepatitis B virus (Greencross Co.) (hepatitis B virus)
Assay: competitive ELISA: antibody pre-incubated with soluble surface antigen S, then plate coated with surface antigen S

B1: humanized antibody HzS-III (antibody, V domains shown)
VH: EVQLVQSGAEVKKPGASVKVSCKASGYTFTDYNVQWVRQAPGKSLEWMGYIYPYSGGTGYSQKFQGRVTLTVDNSASTAYMELSSLRSEDTAVYYCARNYGYDSSAYWGQGTLVTVSS
VL: DIVLTQSPASLAVSPGQRATITCRASESVSNYGINFINWFQQKPGQPPKLLIYTASNKGTGVPARFSGSGSGTDFTLTINPVEAEDTANYFCQQSKEVPYTFGGGTKVEIKR
  Ka: 4e+09 M⁻¹
